By Kd is commonly meant the free concentration of one partner at which half of the binding sites on the other are occupied at equilibrium, for simple one-to-one binding.

One experiment concerns the target T1, shCD131 T106A (human, UniProt P32927 17-438).
T1 construct: C-terminal 6xHis
T1 sequence: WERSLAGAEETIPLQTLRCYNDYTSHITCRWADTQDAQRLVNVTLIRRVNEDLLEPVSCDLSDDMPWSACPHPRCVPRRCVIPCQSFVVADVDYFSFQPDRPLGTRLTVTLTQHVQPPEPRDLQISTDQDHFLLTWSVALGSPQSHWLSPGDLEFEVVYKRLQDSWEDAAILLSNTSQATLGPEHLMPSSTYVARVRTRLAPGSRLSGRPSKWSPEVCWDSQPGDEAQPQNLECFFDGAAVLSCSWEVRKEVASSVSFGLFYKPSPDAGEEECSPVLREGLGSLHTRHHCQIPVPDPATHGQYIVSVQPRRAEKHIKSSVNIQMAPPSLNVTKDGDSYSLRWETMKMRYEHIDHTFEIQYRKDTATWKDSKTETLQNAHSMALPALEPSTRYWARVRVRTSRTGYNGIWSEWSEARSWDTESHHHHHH
As to the kind of experiment: SPR, Fab over captured mutant. As for the experimental part:
For some analysis purified Fab was injected over each flow cell for 3 minutes and dissociation was monitored for a further 10 minutes. Regeneration of the surface was performed after each cycle with a 40 second injection of 25 mM glycine, pH 2.0. The analysis was performed with Fabs at several concentrations between 100 and 0.31 nM, with each concentration analyzed twice and in random order. The analysis was performed at a flow rate of 30 μl/min in HBS-EP buffer (10 mM Hepes, 150 mM NaCl, 3 mM EDTA, 0.005% Tween 20, pH 7.4) at 37° C. Responses from spots 2 and 4 of each flow cell, (in which shβc was not captured, but otherwise treated identically), were subtracted from those of spots 1 and 5 respectively to produce reference subtracted data. Reference subtracted responses from a blank injection comprising buffer alone were subtracted from the resultant sensorgrams to produce double referenced data suitable for kinetic analysis. […]
Mapping of the shCD131 epitope was performed by measurement of the affinity of Fabs for various alanine point mutants of shCD131 essentially as described above, with the following exceptions. […] For kinetic analysis, purified recombinant Fabs were injected for 2 minutes, and dissociation was monitored for a further 2 minutes. […] Kinetic parameters were determined as described above.
(In general: SPR reads the build-up and loss of mass on a sensor chip optically.)

The next experiment has as its target T2, shCD131 R418A (human, UniProt P32927 17-438).
T2 construct: C-terminal 6xHis
T2 sequence: T1 sequence with A90T, R402A
As to the kind of experiment: SPR, kinetics, Fab over captured mutant. Here is the method: (§1) As shβc is a dimer, kinetics assays were performed with shβc captured on the sensor surface, and purified Fab injected as the analyte. Avidity effects were avoided by the use of Fab rather than whole IgG.
(§2) shCD131 was captured on spots 1 and 5 of each flow cell for 2 minutes at a concentration of 0.4 μg/ml. […] For some analysis purified Fab was injected over each flow cell for 3 minutes and dissociation was monitored for a further 10 minutes. Regeneration of the surface was performed after each cycle with a 40 second injection of 25 mM glycine, pH 2.0. The analysis was performed with Fabs at several concentrations between 100 and 0.31 nM, with each concentration analyzed twice and in random order. The analysis was performed at a flow rate of 30 μl/min in HBS-EP buffer (10 mM Hepes, 150 mM NaCl, 3 mM EDTA, 0.005% Tween 20, pH 7.4) at 37° C. Responses from spots 2 and 4 of each flow cell, (in which shβc was not captured, but otherwise treated identically), were subtracted from those of spots 1 and 5 respectively to produce reference subtracted data. Reference subtracted responses from a blank injection comprising buffer alone were subtracted from the resultant sensorgrams to produce double referenced data suitable for kinetic analysis. Double-referenced sensorgrams were fitted using non-linear regression to a model describing 1:1 kinetics, including a term for mass transport limitation. The Rₘₐₓ value was fitted locally to account for slight deviations in the level of sCD131 captured, with association rate (kₐ), dissociation rate (kd) and equilibrium dissociation constant (KD) fitted globally.
(§3) Mapping of the shCD131 epitope was performed by measurement of the affinity of Fabs for various alanine point mutants of shCD131 essentially as described above, with the following exceptions. Each shCD131 mutant was captured for 120 seconds at concentrations between 1 and 5 μg/ml. For kinetic analysis, purified recombinant Fabs were injected for 2 minutes, and dissociation was monitored for a further 2 minutes. […] Fab concentrations ranged from 16 μM to 3.9 nM in two-fold dilutions.

The target of a further experiment is T3, shCD131 N337A (human, UniProt P32927 17-438).
T3 construct: C-terminal 6xHis
T3 sequence: T1 sequence with A90T, N321A
The experiment is described as follows: SPR, kinetics, Fab over captured mutant. As for the experimental part:
as §1, §2, §3

Residue numbers refer to the chain shown, from its start.

B1: 9A2 Fab (Fab, V domains shown)
VH: EVQLLESGGGLVQPGGSLRLSCAASGFTFSHYHMLWVRQAPGKGLEWVSSIRSSGGFTYYADSVKGRFTISRDNSKNTLYLQMNSLRAEDTAVYYCARFYDSFFDIWGQGTMVTVSS
VL: DIQMTQSPSSVSASVGDRVTITCRASQGISSWLAWYQQKPGKAPKLLIYAASSLQSGVPSRFSGSGSGTDFTLTISSLQPEDFATYYCQQANSFPITFGQGTRLEIKR
notes: also called recombinant Fab of 9A2
On to B1, for which, in the experiment with shCD131 T106A, the “fold increase in affinity relative to WT shCD131” value is roughly 10 fold. Also, the values for the Kd with shCD131 R418A and with shCD131 N337A were 70 nM and 91 nM, respectively.

Values taken from US20190062438A1 (CSL, published 2019).
